Experimental data reported in publication PMC9482650, “Quantitative fragmentomics allow affinity mapping of interactomes” (Nature Communications, 2022).

Tests used:
Test in all cases: holdup assay
Set-up in all cases: key: below the threshold = too weak to quantify, mostly under pKd 3.1 to 4
[1] = molecular target: MAGI2_4, Q86UL8
[2] = molecular target: T1, SYNJ2BP, P57105
T1 sequence (P57105 8-110, limits assumed, looked up): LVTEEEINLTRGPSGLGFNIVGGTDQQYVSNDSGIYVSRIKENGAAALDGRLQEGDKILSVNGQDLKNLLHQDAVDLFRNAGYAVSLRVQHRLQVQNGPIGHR

[3] = molecular target: PDZRN4_1, Q6ZMN7
PDZRN4_1, Q6ZMN7, sequence (Q6ZMN7 213-318): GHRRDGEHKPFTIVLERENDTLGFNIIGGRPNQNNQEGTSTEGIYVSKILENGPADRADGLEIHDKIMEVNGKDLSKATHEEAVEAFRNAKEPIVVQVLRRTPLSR

[4] = molecular target: T2, MPDZ_10, O75970
T2 sequence (O75970 1624-1722, limits assumed, looked up): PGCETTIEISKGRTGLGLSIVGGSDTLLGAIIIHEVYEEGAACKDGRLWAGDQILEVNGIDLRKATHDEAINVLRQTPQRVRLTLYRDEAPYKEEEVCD

[5] = molecular target: T3, RHPN1, Q8TCX5
T3 sequence (Q8TCX5 508-602, limits assumed, looked up): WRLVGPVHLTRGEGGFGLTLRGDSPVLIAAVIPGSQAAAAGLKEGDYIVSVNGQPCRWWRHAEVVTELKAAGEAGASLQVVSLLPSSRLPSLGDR

[6] = molecular target: T4, NHERF3_1, Q5T2W1
T4 sequence (Q5T2W1 4-100, limits assumed, looked up): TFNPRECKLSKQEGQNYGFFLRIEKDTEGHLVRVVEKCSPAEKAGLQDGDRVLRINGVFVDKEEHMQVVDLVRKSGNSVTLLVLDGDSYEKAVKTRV

[7] = molecular target: MAGI2_2, Q86UL8
MAGI2_2, Q86UL8, sequence (Q86UL8 410-522): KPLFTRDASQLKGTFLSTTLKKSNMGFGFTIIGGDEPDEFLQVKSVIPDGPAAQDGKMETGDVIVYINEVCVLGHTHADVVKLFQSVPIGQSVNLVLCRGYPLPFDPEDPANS

[8] = molecular target: T5, APBA3_1, O96018
T5 sequence (O96018 389-490, limits assumed, looked up): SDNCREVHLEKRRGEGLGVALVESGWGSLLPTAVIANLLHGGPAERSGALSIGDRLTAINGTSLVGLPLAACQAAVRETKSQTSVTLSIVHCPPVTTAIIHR

[9] = molecular target: GRIP2_7, Q9C0E4
GRIP2_7, Q9C0E4, sequence (Q9C0E4 934-1023): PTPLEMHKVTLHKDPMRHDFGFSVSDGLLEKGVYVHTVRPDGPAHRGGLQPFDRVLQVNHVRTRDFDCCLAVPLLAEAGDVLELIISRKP

[10] = molecular target: LNX1_3, Q8TBB1
LNX1_3, Q8TBB1, sequence (Q8TBB1 500-596): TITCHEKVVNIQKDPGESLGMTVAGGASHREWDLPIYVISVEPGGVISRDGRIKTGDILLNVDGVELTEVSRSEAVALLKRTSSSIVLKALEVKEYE

[11] = molecular target: DLG1_1, Q12959
[12] = molecular target: T6, GRIP1_7, Q9Y3R0
T6 sequence (Q9Y3R0 999-1096, limits assumed, looked up): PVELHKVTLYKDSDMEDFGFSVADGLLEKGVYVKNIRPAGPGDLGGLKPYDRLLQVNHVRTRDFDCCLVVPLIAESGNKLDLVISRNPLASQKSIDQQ

[13] = molecular target: T7, TJP3_3, O95049
T7 sequence (O95049 375-456, limits assumed, looked up): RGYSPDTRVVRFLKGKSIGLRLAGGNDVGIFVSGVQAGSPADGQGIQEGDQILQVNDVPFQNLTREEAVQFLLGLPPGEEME

[14] = molecular target: MAGI1_2, Q96QZ7
MAGI1_2, Q96QZ7, sequence (Q96QZ7 456-580): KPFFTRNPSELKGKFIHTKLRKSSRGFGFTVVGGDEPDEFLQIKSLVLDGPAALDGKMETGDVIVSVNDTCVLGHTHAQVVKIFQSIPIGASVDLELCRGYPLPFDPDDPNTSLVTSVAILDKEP

[15] = molecular target: NHERF4_4, Q86UT5
NHERF4_4, Q86UT5, sequence (Q86UT5 464-550): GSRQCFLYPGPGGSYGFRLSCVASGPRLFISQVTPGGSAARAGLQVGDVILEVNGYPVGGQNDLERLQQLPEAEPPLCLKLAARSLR

[16] = molecular target: T8, MPDZ_12, O75970
T8 sequence (O75970 1857-1958, limits assumed, looked up): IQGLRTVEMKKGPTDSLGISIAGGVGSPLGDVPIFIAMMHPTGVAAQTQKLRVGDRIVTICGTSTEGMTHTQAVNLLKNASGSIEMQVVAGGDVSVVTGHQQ

[17] = molecular target: T9, SNTA1, Q13424
T9 sequence (Q13424 82-180, limits assumed, looked up): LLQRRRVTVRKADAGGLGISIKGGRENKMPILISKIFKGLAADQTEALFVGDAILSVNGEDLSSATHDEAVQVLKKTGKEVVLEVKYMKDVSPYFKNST

[18] = molecular target: T10, DFNB31_2, Q9P202
T10 sequence (Q9P202 274-371, limits assumed, looked up): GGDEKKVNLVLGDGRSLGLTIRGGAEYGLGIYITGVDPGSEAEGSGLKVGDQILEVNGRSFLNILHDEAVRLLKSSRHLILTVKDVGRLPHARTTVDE

[19] = molecular target: T11, PTPN13_1, Q12923
T11 sequence (Q12923 1088-1188, limits assumed, looked up): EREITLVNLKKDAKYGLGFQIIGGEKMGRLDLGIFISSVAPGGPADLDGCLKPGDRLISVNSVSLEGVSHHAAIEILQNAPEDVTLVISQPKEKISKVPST

[20] = molecular target: T12, LRRC7, Q96NW7
T12 sequence (Q96NW7 1440-1537, limits assumed, looked up): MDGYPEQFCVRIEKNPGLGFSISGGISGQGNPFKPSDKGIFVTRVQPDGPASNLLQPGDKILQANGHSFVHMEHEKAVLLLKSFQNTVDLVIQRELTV

[21] = molecular target: T13, APBA2_1, Q99767
T13 sequence (Q99767 563-664, limits assumed, looked up): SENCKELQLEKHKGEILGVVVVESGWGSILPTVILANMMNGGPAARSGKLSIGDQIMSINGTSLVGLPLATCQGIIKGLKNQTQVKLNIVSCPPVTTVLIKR

[22] = molecular target: DLG1_3, Q12959
[23] = molecular target: CASK, O14936
CASK, O14936, sequence (O14936 487-570): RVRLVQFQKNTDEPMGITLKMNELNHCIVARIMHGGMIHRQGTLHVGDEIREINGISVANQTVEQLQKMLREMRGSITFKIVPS

[24] = molecular target: DLG1_2, Q12959
[25] = molecular target: Inadl_5, Q8NI35
Inadl_5, Q8NI35, sequence (Q8NI35 673-780): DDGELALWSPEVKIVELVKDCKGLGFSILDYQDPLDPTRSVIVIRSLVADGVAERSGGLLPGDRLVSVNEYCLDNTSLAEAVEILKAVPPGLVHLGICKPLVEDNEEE

[26] = plain residues with an end cap or a label only (N-terminal biotin on a linker: ado-ado)
[27] = plain residues with an end cap or a label only (N-terminal biotin on a linker: ahx)

MAGI2_4, Q86UL8, sequence (Q86UL8 772-865): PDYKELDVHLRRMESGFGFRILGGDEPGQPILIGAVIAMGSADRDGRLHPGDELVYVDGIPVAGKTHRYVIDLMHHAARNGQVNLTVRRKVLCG

Binder: LPAVCYDIDI [PTTG2, Q9NZH5]
- pKd [1, 26]: 3.67
- pKd [2, 26]: below the threshold
- pKd [3, 26]: below the threshold
- pKd [4, 26]: below the threshold
- pKd [5, 26]: below the threshold
- pKd [6, 26]: below the threshold
- pKd [7, 26]: below the threshold
- pKd [8, 26]: below the threshold
- pKd [9, 26]: below the threshold
- pKd [10, 26]: below the threshold
- pKd [11, 26]: below the threshold
- pKd [12, 26]: below the threshold
- pKd [13, 26]: below the threshold
- pKd [14, 26]: below the threshold
- pKd [15, 26]: 4.9
- pKd [16, 26]: 3.48
- pKd [17, 26]: below the threshold
- pKd [18, 26]: below the threshold
- pKd [19, 26]: below the threshold
- pKd [20, 26]: below the threshold
- pKd [21, 26]: below the threshold
- pKd [22, 26]: below the threshold
- pKd [23, 26]: below the threshold
- pKd [24, 26]: below the threshold
- pKd [25, 26]: below the threshold

Binder: QNTDDVQTSF [ACE2, Q9BYF1]
- pKd [1, 27]: below the threshold
- pKd [2, 27]: below the threshold
- pKd [3, 27]: below the threshold
- pKd [4, 27]: below the threshold
- pKd [5, 27]: 4.38
- pKd [6, 27]: 4.4
- pKd [7, 27]: below the threshold
- pKd [8, 27]: below the threshold
- pKd [9, 27]: below the threshold
- pKd [10, 27]: below the threshold
- pKd [11, 27]: below the threshold
- pKd [12, 27]: below the threshold
- pKd [13, 27]: below the threshold
- pKd [14, 27]: below the threshold
- pKd [15, 27]: below the threshold
- pKd [16, 27]: below the threshold
- pKd [17, 27]: below the threshold
- pKd [18, 27]: below the threshold
- pKd [19, 27]: below the threshold
- pKd [20, 27]: below the threshold
- pKd [21, 27]: below the threshold
- pKd [22, 27]: below the threshold
- pKd [23, 27]: below the threshold
- pKd [24, 27]: 3.54
- pKd [25, 27]: below the threshold

Binder: GEDRSPPTAL [MKNK1, Q9BUB5]
- pKd [1, 26]: below the threshold
- pKd [2, 26]: below the threshold
- pKd [3, 26]: below the threshold
- pKd [4, 26]: below the threshold
- pKd [5, 26]: below the threshold
- pKd [6, 26]: 3.71
- pKd [7, 26]: below the threshold
- pKd [8, 26]: below the threshold
- pKd [9, 26]: below the threshold
- pKd [10, 26]: below the threshold
- pKd [11, 26]: below the threshold
- pKd [12, 26]: below the threshold
- pKd [13, 26]: below the threshold
- pKd [14, 26]: below the threshold
- pKd [15, 26]: below the threshold
- pKd [16, 26]: below the threshold
- pKd [17, 26]: below the threshold
- pKd [18, 26]: below the threshold
- pKd [19, 26]: below the threshold
- pKd [20, 26]: below the threshold
- pKd [21, 26]: below the threshold
- pKd [22, 26]: below the threshold
- pKd [23, 26]: below the threshold
- pKd [24, 26]: below the threshold
- pKd [25, 26]: below the threshold

Binder: KKMLQRRTLL [OR8G1, Q15617]
- pKd [1, 26]: below the threshold
- pKd [2, 26]: below the threshold
- pKd [3, 26]: below the threshold
- pKd [4, 26]: below the threshold
- pKd [5, 26]: below the threshold
- pKd [6, 26]: 4.94
- pKd [7, 26]: 4.44
- pKd [8, 26]: below the threshold
- pKd [9, 26]: below the threshold
- pKd [10, 26]: below the threshold
- pKd [11, 26]: below the threshold
- pKd [12, 26]: below the threshold
- pKd [13, 26]: below the threshold
- pKd [14, 26]: 4.85
- pKd [15, 26]: below the threshold
- pKd [16, 26]: below the threshold
- pKd [17, 26]: 3.58
- pKd [18, 26]: below the threshold
- pKd [19, 26]: below the threshold
- pKd [20, 26]: below the threshold
- pKd [21, 26]: below the threshold
- pKd [22, 26]: below the threshold
- pKd [23, 26]: below the threshold
- pKd [24, 26]: 4.09
- pKd [25, 26]: below the threshold
